This assay has as its target acetylcholine receptor (Homo sapiens, UniProt P02708). Description: SPR binding affinity (RU) of optimized 5mer/6mer/7mer peptides, Examples 6-7. Particulars: SPR, peptides tested at 10 μM; 6mer-1 Top sequence (top combinations). The gist of the method:
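Single-concentration screen: 10 μM peptide, SPR detection, binding expressed as RU.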

Chain of acetylcholine receptor (P02708 21-457): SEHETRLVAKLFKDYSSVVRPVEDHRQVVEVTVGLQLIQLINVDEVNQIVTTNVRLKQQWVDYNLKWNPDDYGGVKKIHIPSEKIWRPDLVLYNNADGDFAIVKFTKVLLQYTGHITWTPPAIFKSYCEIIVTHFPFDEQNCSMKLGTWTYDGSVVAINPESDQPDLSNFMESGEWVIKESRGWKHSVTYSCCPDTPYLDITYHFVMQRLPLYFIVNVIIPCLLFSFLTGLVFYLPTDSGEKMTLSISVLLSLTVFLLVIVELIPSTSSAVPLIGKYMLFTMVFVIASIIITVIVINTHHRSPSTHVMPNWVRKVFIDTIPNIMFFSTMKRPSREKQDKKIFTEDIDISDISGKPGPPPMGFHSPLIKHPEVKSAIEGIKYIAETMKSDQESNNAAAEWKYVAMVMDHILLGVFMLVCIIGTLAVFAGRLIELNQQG

6mer-1-61 (KRSYCK): the Binding affinity came to 121 Ru. As for 6mer-1-62 (RRWFTK), the Binding affinity was 133 Ru.

As to 6mer-1-63 (KKWVSR), the Binding affinity is reported as 148 Ru. For 6mer-1-64 (RKQFTK), the Binding affinity was found to be 154 Ru. Next, 6mer-1-65 (KKSRRR): 121 Ru. Next, 6mer-1-66 (KKSISR): 147 Ru; 6mer-1-67 (RRSYTR): 135 Ru. For the substance 6mer-1-68 (RKLQLK), the Binding affinity was 153 Ru. Next, 6mer-1-69 (RKVRRR): 142 Ru; 6mer-1-70 (KKLLYR): 139 Ru; 6mer-1-71 (KRWFYK): 121 Ru. Take 6mer-1-72 (RKVQLK): the Binding affinity worked out at 139 Ru. For the substance 6mer-1-73 (KKQQQR), the Binding affinity was 142 Ru. As for 6mer-1-74 (KKVRLR), the Binding affinity came to 142 Ru. In the case of 6mer-1-75 (RRQYQK), the Binding affinity stood at 139 Ru.

Take 6mer-1-76 (RRLQLK): the Binding affinity is recorded as 126 Ru.

With 6mer-1-77 (KKQLRR), the Binding affinity was found to be 149 Ru. Next, 6mer-1-78 (KKRVSK): 145 Ru. In the case of 6mer-1-79 (KRLFCK), the Binding affinity was determined as 137 Ru. For 6mer-1-80 (KRVQQR) the value was 133 Ru; for 6mer-1-81 (RRWQLR), 148 Ru. Turning to 6mer-1-82 (KKVLYR), the Binding affinity was found to be 123 Ru. For 6mer-1-83 (RRSFLR) the value was 146 Ru. On to 6mer-1-84 (RRGQTK), for which the Binding affinity was 142 Ru. As for 6mer-1-85 (RKRQCK), the Binding affinity was 121 Ru. Regarding 6mer-1-86 (KKWRQK), the Binding affinity came to 142 Ru.

As for 6mer-1-87 (KKQVYK), the Binding affinity is 139 Ru.

In the case of 6mer-1-88 (KRWICK), the Binding affinity is listed as 121 Ru. As for 6mer-1-89 (RKQRCK), the Binding affinity turned out to be 142 Ru. Take 6mer-1-90 (KKGISK): the Binding affinity is given as 125 Ru.

With 6mer-1-91 (RKQQCK), the Binding affinity stood at 131 Ru. Consider 6mer-1-92 (RRWRLK), for which the Binding affinity was determined as 153 Ru. Consider 6mer-1-93 (KRWIRR), for which the Binding affinity is 136 Ru. Turning to 6mer-1-94 (RKVQQK), the Binding affinity was 142 Ru. Turning to 6mer-1-95 (KKWQTK), the Binding affinity is 142 Ru. Consider 6mer-1-96 (KRGVRK), for which the Binding affinity worked out at 125 Ru. Next, 6mer-1-97 (KKVYLR): 139 Ru. For 6mer-1-98 (KRLQCR) the value was 154 Ru; for 6mer-1-99 (RKVVYR), 136 Ru; for 6mer-1-100 (RKWISK), 146 Ru. 6mer-1-101 (KRWLYR): the Binding affinity was 142 Ru. 6mer-1-102 (RRRYRR): the Binding affinity came out at 127 Ru. For 6mer-1-103 (RKRICK), the Binding affinity worked out at 122 Ru. Next, 6mer-1-104 (KRGFSK): 121 Ru. Consider 6mer-1-105 (KKSISK), for which the Binding affinity worked out at 141 Ru.

Take 6mer-1-106 (KRGQLK): the Binding affinity was determined as 149 Ru. Turning to 6mer-1-107 (KKQRSR), the Binding affinity is listed as 131 Ru. Next, 6mer-1-108 (RRLLLR): 139 Ru; 6mer-1-109 (KKRYLR): 148 Ru. For 6mer-1-110 (KRQLLK) the value was 121 Ru. For 6mer-1-111 (RKVICR) the value was 144 Ru. Turning to 6mer-1-112 (KKWVCR), the Binding affinity is given as 148 Ru. As for 6mer-1-113 (KRGVQK), the Binding affinity is 148 Ru. Regarding 6mer-1-114 (RRQITK), the Binding affinity is 153 Ru. As to 6mer-1-115 (RRSLSR), the Binding affinity is 133 Ru. In the case of 6mer-1-116 (RKVRCK), the Binding affinity is listed as 139 Ru.

As for 6mer-1-117 (KRLFTR), the Binding affinity came to 142 Ru. Next, 6mer-1-118 (RKLQLR): 127 Ru; 6mer-1-119 (KRLQTR): 133 Ru; 6mer-1-120 (RRRYSR): 124 Ru. For 6mer-1-121 (KRRYTK) the value was 148 Ru; for 6mer-1-122 (KKLIRK), 139 Ru; for 6mer-1-123 (RRGVQK), 148 Ru. For 6mer-1-124 (KRVQQK), the Binding affinity is given as 137 Ru.

For the substance 6mer-1-125 (KRRLCR), the Binding affinity came out at 135 Ru. Take 6mer-1-126 (KKWIQR): the Binding affinity was determined as 148 Ru. 6mer-1-127 (KRVIYR): the Binding affinity is listed as 147 Ru. For the substance 6mer-1-128 (RKQFYR), the Binding affinity worked out at 126 Ru. For 6mer-1-129 (RRRQSK) the value was 121 Ru; for 6mer-1-130 (RKQVLR), 142 Ru. In the case of 6mer-1-131 (KRGIQR), the Binding affinity worked out at 142 Ru. For 6mer-1-132 (RRQVYR), the Binding affinity came to 153 Ru. With 6mer-1-133 (RKRFLR), the Binding affinity stood at 154 Ru. For the substance 6mer-1-134 (KKSIYR), the Binding affinity amounted to 128 Ru. For 6mer-1-135 (KRQVSR) the value was 123 Ru; for 6mer-1-136 (RRWLYK), 148 Ru.

As for 6mer-1-137 (RRLFRR), the Binding affinity was 121 Ru. Next, 6mer-1-138 (RKVVTR): 124 Ru; 6mer-1-139 (KRRFLR): 122 Ru.

6mer-1-140 (KRQVQR): the Binding affinity was determined as 148 Ru.

Take 6mer-1-141 (RKLYQK): the Binding affinity came out at 141 Ru.

As to 6mer-1-142 (KKVYYK), the Binding affinity amounted to 123 Ru. As for 6mer-1-143 (KRGVLR), the Binding affinity is 145 Ru. For 6mer-1-144 (RKRYTR) the value was 148 Ru; for 6mer-1-145 (RKVFQR), 141 Ru; for 6mer-1-146 (KRGRRR), 139 Ru. Next, 6mer-1-147 (KKQIQR): 125 Ru; 6mer-1-148 (RKLRCR): 146 Ru. For 6mer-1-149 (RRWVCK) the value was 131 Ru; for 6mer-1-150 (RKRQCR), 142 Ru; for 6mer-1-151 (KRGVRR), 145 Ru. In the case of 6mer-1-152 (KRVIRR), the Binding affinity stood at 154 Ru. In the case of 6mer-1-153 (KKWQQR), the Binding affinity is given as 146 Ru. Consider 6mer-1-154 (KKLYSR), for which the Binding affinity came out at 153 Ru.

For the substance 6mer-1-155 (RRVRSR), the Binding affinity was 127 Ru. Consider 6mer-1-156 (RRSVTK), for which the Binding affinity stood at 154 Ru.

On to 6mer-1-157 (KKSLLR), for which the Binding affinity turned out to be 123 Ru. For 6mer-1-158 (RRLIYR) the value was 131 Ru; for 6mer-1-159 (KRLRRK), 139 Ru; for 6mer-1-160 (RRVIQR), 149 Ru. Consider 6mer-1-161 (KRRYCK), for which the Binding affinity was 139 Ru. On to 6mer-1-162 (KKSLSK), for which the Binding affinity is recorded as 142 Ru. Next, 6mer-1-163 (KRLQTK): 147 Ru; 6mer-1-164 (KRGQYK): 145 Ru. For 6mer-1-165 (KKWFTK) the value was 148 Ru. For 6mer-1-166 (RRWYSK) the value was 148 Ru; for 6mer-1-167 (RRRYQR), 122 Ru. In the case of 6mer-1-168 (KRWFCK), the Binding affinity worked out at 131 Ru. For 6mer-1-169 (RRQQSK) the value was 153 Ru.

On to 6mer-1-170 (RKSFYR), for which the Binding affinity is 148 Ru.

As for 6mer-1-171 (RKQFQK), the Binding affinity was found to be 123 Ru. Next, 6mer-1-172 (RRLIRK): 153 Ru; 6mer-1-173 (RKQYYR): 123 Ru. For 6mer-1-174 (KKGVCR) the value was 154 Ru; for 6mer-1-175 (RRRIQK), 137 Ru. For 6mer-1-176 (KKVYCK), the Binding affinity is recorded as 121 Ru. With 6mer-1-177 (KRGYRR), the Binding affinity is recorded as 121 Ru. Turning to 6mer-1-178 (RKRYQK), the Binding affinity is listed as 139 Ru. Turning to 6mer-1-179 (KRSQYR), the Binding affinity came to 148 Ru. In the case of 6mer-1-180 (RKLVRK), the Binding affinity is on record as 146 Ru. For 6mer-1-181 (KKGVLR) the value was 148 Ru; for 6mer-1-182 (KRGICK), 147 Ru. For 6mer-1-183 (KKGQTR) the value was 121 Ru; for 6mer-1-184 (KRQICR), 139 Ru; for 6mer-1-185 (KRQLRK), 153 Ru.

As to 6mer-1-186 (RRRVYK), the Binding affinity came to 147 Ru.

With 6mer-1-187 (RKLFYK), the Binding affinity worked out at 139 Ru. Consider 6mer-1-188 (RKSLQK), for which the Binding affinity amounted to 122 Ru. Turning to 6mer-1-189 (KKSYSK), the Binding affinity is listed as 137 Ru. Next, 6mer-1-190 (RKLYYR): 153 Ru. Next, 6mer-1-191 (KKQILK): 139 Ru.

On to 6mer-1-192 (KRQYQR), for which the Binding affinity is listed as 127 Ru.

As for 6mer-1-193 (KRVQLK), the Binding affinity was found to be 149 Ru.

Values taken from patent US20250011363A1, “OPTIMIZED SHORTENED PEPTIDE THAT BINDS TO ACETYLCHOLINE RECEPTOR, AND USE THEREOF” (SKINMED CO., LTD., priority 2021, published 2025).
